According to patent US20120231006A1 (Amgen, published 2012):

Experiments:
[1] = molecular target: T1, mOrai1-hOrai1 ECL2 (AESVIV) protein (human/mouse chimera, UniProt Q8BWG9 1-304 (mouse entry)); experiment: FACS, 293EBNA, RFI-POC grade; set-up: concentration or dose not given beside the values
T1 construct: also called Ch
Outline: (§1)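 HEK-293-EBNA cells expressing mOrai1-hOrai1 ECL2 chimeric mutants stained with recombinant monoclonal antibodies, then PE-labelled goat anti-human IgG F(ab′)2, and analysed by FACS. RFI-POC derived from geometric mean fluorescence; graded +++ (40–100%), ++ (5–<40%), + (1–<5%), − (<1%).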

[2] = molecular target: T2, mOrai1-hOrai1 ECL2 (…) protein (human/mouse chimera, UniProt Q8BWG9 1-304 (mouse entry)); experiment: FACS, 293EBNA, RFI-POC grade; set-up: concentration or dose not given beside the values
T2 construct: also called Ch
T2 sequence (Q8BWG9 other isoform, or with tags, fused parts or gaps): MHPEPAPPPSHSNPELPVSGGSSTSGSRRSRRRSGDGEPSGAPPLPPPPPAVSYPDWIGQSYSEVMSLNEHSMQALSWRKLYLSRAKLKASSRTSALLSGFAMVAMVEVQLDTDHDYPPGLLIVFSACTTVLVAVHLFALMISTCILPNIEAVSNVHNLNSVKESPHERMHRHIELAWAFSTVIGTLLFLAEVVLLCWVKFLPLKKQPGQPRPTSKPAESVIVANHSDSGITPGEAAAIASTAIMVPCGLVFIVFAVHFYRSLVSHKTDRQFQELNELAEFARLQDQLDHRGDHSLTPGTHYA
Outline: as §1

human Orai1 = human Orai1 (human, UniProt Q96D31 1-301); experiment: cell-based or functional assay
Chain of human Orai1 (Q96D31 whole entry): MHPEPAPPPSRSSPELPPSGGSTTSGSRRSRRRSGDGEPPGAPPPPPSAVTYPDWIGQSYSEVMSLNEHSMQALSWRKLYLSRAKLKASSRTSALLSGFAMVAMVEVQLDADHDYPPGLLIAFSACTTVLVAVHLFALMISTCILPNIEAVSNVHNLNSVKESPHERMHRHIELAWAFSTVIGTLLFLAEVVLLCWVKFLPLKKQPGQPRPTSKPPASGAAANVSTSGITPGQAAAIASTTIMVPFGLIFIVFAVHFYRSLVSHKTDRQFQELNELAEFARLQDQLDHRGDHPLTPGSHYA

T1 sequence (Q8BWG9 other isoform, or with tags, fused parts or gaps): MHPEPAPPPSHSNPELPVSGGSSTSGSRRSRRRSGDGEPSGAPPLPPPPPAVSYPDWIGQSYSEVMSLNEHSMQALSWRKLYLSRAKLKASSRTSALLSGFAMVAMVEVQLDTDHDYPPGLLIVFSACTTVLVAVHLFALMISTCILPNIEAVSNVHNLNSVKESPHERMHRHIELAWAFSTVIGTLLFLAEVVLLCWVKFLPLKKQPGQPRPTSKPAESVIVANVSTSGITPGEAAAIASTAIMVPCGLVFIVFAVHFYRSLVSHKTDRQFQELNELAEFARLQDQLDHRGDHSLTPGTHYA

B1: mAb 5B1.1 (antibody, human IgG2, lambda, V domains shown)
VH: QVQLVQSGAEVKKPGASVKVSCKASGYTFTDYYINWVRQAPGQGLEWMGWINPNSGGSSYAQKFQGRVTMTRDTSISTAHMELIRLRSDDTAVYYCARERGGIEDWFDPWGQGTLVTVSS
VL: QSVLTQPPSVSGAPGQRVTISCTGSSSNIGAGYDVHWYQQLPGTAPKLLIYGNSNRPSGVPDRFSGSKSGTSASLAITKFQAEDEAVYYCQSYGSGLSGVVFGGGTKLTVLG
notes: fully human IgG2 lambda, Campaign 2; also called mAb 5Bl1.1
- POC (percent of control, FACS Geo Mean relative to binding to Ch. 1) [1]: 1 to 5%
- POC (percent of control, FACS Geo Mean relative to binding to Ch. 1) [2]: 1 to 5%
- IC50 IFN-γ, whole blood Donor A, recombinant mAb (human Orai1): 0.52 nM
- IC50 IFN-γ, whole blood Donor B, recombinant mAb (human Orai1): 34.8 nM
- IC50 IL-2, whole blood Donor A, recombinant mAb (human Orai1): 2.08 nM
- IC50 IL-2, whole blood Donor B, recombinant mAb (human Orai1): 9.52 nM
